To fix the notation:
B1: GST-SHARPIN^WT [not stated] / recombinant RNF31 [not stated] (parent complex)
chain 1: MAPPAGGAAAAASDLGSAAVLLAVHAAVRPLGAGPDAEAQLRRLQLSADPERPGRFRLELLGAGPGAVNLEWPLESVSYTIRGPTQHELQPPPGGPGTLSLHFLNPQEAQRWAVLVRGATVEGQNGSKSNSPPALGPEACPVSLPSPPEASTLKGPPPEADLPRSPGNLTEREELAGSLARAIAGGDEKGAAQVAAVLAQHRVALSVQLQEACFPPGPIRLQVTLEDAASAASAASSAHVALQVHPHCTVAALQEQVFSELGFPPAVQRWVIGRCLCVPERSLASYGVRQDGDPAFLYLLSAPREAPATGPSPQHPQKMDGELGRLFPPSLGLPPGPQPAASSLPSPLQPSWSCPSCTFINAPDRPGCEMCSTQRPCTWDPLAAAST
chain 2: MPGEEEERAFLVAREELASALRRDSGQAFSLEQLRPLLASSLPLAARYLQLDAARLVRCNAHGEPRNYLNTLSTALNILEKYGRNLLSPQRPRYWRGVKFNNPVFRSTVDAVQGGRDVLRLYGYTEEQPDGLSFPEGQEEPDEHQVATVTLEVLLLRTELSLLLQNTHPRQQALEQLLEDKVEDDMLQLSEFDPLLREIAPGPLTTPSVPGSTPGPCFLCGSAPGTLHCPSCKQALCPACDHLFHGHPSRAHHLRQTLPGVLQGTHLSPSLPASAQPRPQSTSLLALGDSSLSSPNPASAHLPWHCAACAMLNEPWAVLCVACDRPRGCKGLGLGTEGPQGTGGLEPDLARGRWACQSCTFENEAAAVLCSICERPRLAQPPSLVVDSRDAGICLQPLQQGDALLASAQSQVWYCIHCTFCNSSPGWVCVMCNRTSSPIPAQHAPRPYASSLEKGPPKPGPPRRLSAPLPSSCGDPEKQRQDKMREEGLQLVSMIREGEAAGACPEEIFSALQYSGTEVPLQWLRSELPYVLEMVAELAGQQDPGLGAFSCQEARRAWLDRHGNLDEAVEECVRTRRRKVQELQSLGFGPEEGSLQALFQHGGDVSRALTELQRQRLEPFRQRLWDSGPEPTPSWDGPDKQSLVRRLLAVYALPSWGRAELALSLLQETPRNYELGDVVEAVRHSQDRAFLRRLLAQECAVCGWALPHNRMQALTSCECTICPDCFRQHFTIALKEKHITDMVCPACGRPDLTDDTQLLSYFSTLDIQLRESLEPDAYALFHKKLTEGVLMRDPKFLWCAQCSFGFIYEREQLEATCPQCHQTFCVRCKRQWEEQHRGRSCEDFQNWKRMNDPEYQAQGLAMYLQENGIDCPKCKFSYALARGGCMHFHCTQCRHQFCSGCYNAFYAKNKCPEPNCRVKKSLHGHHPRDCLFYLRDWTALRLQKLLQDNNVMFNTEPPAGARAVPGGGCRVIEQKEVPNGLRDEACGKETPAGYAGLCQAHYKEYLVSLINAHSLDPATLYEVEELETATERYLHVRPQPLAGEDPPAYQARLLQKLTEEVPLGQSIPRRRK

The values that follow come from PMC4658161, “Mutually Exclusive Roles of SHARPIN in Integrin Inactivation and NF-κB Signaling” (PLoS ONE, 2015).

The test covers variants of B1. Kind of test: ELISA-based binding assay; n = 3; parent: 1; read off a plot.
For the variant chain 1 V267A, the response is around 0.69 Abs 450nm. Take chain 1 L261A, chain 1 F263A: the response was around 0.7 Abs 450nm. In the case of chain 1 I272A, the response was around 0.45 Abs 450nm. For the variant chain 1 L276A, the response is around 0.49 Abs 450nm.
